In patent US20250073307A1 (Chugai, published 2025):
Read-outs that look alike come from different tables or passages of the source.

Experiments:
Assay in all cases: cell-based or functional assay
[1] = biological target: T1, mouse CXCR3 (mCXCR3) expressed on Ba/F3 transfectant cells (mouse, UniProt O88410 1-367)
T1 sequence (looked up): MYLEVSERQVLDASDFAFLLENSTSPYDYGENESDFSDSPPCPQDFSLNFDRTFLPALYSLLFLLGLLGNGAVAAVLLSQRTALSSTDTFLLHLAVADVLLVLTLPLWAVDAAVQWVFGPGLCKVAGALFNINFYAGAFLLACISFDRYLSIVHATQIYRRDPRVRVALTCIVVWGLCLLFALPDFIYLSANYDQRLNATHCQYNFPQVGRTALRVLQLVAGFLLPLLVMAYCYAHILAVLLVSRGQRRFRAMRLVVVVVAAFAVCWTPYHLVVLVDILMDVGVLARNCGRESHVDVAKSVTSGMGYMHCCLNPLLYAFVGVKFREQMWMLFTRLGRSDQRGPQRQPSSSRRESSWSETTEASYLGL

[2] = biological target: T1, mouse CXCR3 (mCXCR3) expressed on Ba/F3 …; remark: listed apart in the source
[3] = biological target: T1, mouse CXCR3 (mCXCR3) expressed on Ba/F3 …; remark: listed apart in the source
[4] = biological target: T1, mouse CXCR3 (mCXCR3) expressed on Ba/F3 …; remark: listed apart in the source
[5] = biological target: T1, mouse CXCR3 (mCXCR3) expressed on Ba/F3 …; remark: listed apart in the source

Binder | cell migration-inducing activity (BaF3/mCXCR3 transwell) at 3 nM, relative to hCXCL10R75A Fc fusion = 100% [2] [%] | cell migration-inducing activity (BaF3/mCXCR3 transwell) at 10 nM, relative to hCXCL10R75A Fc fusion = 100% [2] [%] | cell migration-inducing activity (BaF3/mCXCR3 transwell) at 30 nM, relative to hCXCL10R75A Fc fusion = 100% [2] [%] | cell migration-inducing activity (BaF3/mCXCR3 transwell) at 100 nM, relative to hCXCL10R75A Fc fusion = 100% [2] [%] | cell migration-inducing activity (BaF3/mCXCR3 transwell) at 300 nM, relative to hCXCL10R75A Fc fusion = 100% [2] [%] | cell migration-inducing activity (BaF3/mCXCR3 transwell) at 1000 nM, relative to hCXCL10R75A Fc fusion = 100% [2] [%] | cell migration-inducing activity at 3 nM, relative to hCXCL10R75A.0670 Fc fusion = 100% [5] [%] | cell migration-inducing activity at 10 nM, relative to hCXCL10R75A.0670 Fc fusion = 100% [5] [%] | cell migration-inducing activity at 30 nM, relative to hCXCL10R75A.0670 Fc fusion = 100% [5] [%] | cell migration-inducing activity at 100 nM, relative to hCXCL10R75A.0670 Fc fusion = 100% [5] [%] | cell migration-inducing activity at 300 nM, relative to hCXCL10R75A.0670 Fc fusion = 100% [5] [%] | cell migration-inducing activity at 1000 nM, relative to hCXCL10R75A.0670 Fc fusion = 100% [5] [%] | other results
hCXCL10R75A.0642-G1T4k.one//VHn-G1T4h.one.H435R (Fc fusion) chain 1: VPLSRTVRCTCISISNQCVNPRSLEKLEIIPASQFCPRVEIIATMKKKGEKRCLNPESKCIKNLLKAVSKERSKASPEPKSSDKTHTCPPCPAPELRRGPSVFLFPPKPKDTLMISRTPEVTCVVVDVSHEDPEVKFNWYVDGVEVHNAKTKPREEQYNSTYRVVSVLTVLHQDWLNGKEYKCKVSNKGLPSSIEKTISKAKGQPREPQVCTLPPSREEMTKNQVSLWCLVKGFYPSDIAVEWESNGQPENNYKTTPPVLDSDGSFFLYSKLTVDKSRWQEGNVFSCSVMHEALHNHYTQKSLSLSP chain 2: EPKSSDKTHTCPPCPAPELRRGPSVFLFPPKPKDTLMISRTPEVTCVVVDVSHEDPEVKFNWYVDGVEVHNAKTKPREEQYNSTYRVVSVLTVLHQDWLNGKEYKCKVSNKGLPSSIEKTISKAKGQPREPQVYTLPPSRCEMTKNQVSLSCAVKGFYPSDIAVEWESNGQPENNYKTTPPVLDSDGSFFLVSKLTVDKSRWQEGNVFSCSVMHEALHNRYTQKSLSLSP | 196 | 150 | 106 | 98 | 116 | 80 | – | – | – | – | – | – | cell migration-inducing activity (BaF3/mCXCR3 transwell) at 3 nM, relative to hCXCL10R75A Fc fusion = 100% [1]: 196%; cell migration-inducing activity (BaF3/mCXCR3 transwell) at 10 nM, relative to hCXCL10R75A Fc fusion = 100% [1]: 150%; cell migration-inducing activity (BaF3/mCXCR3 transwell) at 30 nM, relative to hCXCL10R75A Fc fusion = 100% [1]: 106%; cell migration-inducing activity (BaF3/mCXCR3 transwell) at 100 nM, relative to hCXCL10R75A Fc fusion = 100% [1]: 98%; cell migration-inducing activity (BaF3/mCXCR3 transwell) at 300 nM, relative to hCXCL10R75A Fc fusion = 100% [1]: 116%; cell migration-inducing activity (BaF3/mCXCR3 transwell) at 1000 nM, relative to hCXCL10R75A Fc fusion = 100% [1]: 80%
hCXCL10R75A.0643-G1T4k.one//VHn-G1T4h.one.H435R (Fc fusion) chain 1: YVLSRTVRCTCISISNQPVNPRSLEKLEIIPASQFCPRVEIIATMKKKGEKRCLNPESKAIKNLLKAVSKERSKASPEPKSSDKTHTCPPCPAPELRRGPSVFLFPPKPKDTLMISRTPEVTCVVVDVSHEDPEVKFNWYVDGVEVHNAKTKPREEQYNSTYRVVSVLTVLHQDWLNGKEYKCKVSNKGLPSSIEKTISKAKGQPREPQVCTLPPSREEMTKNQVSLWCLVKGFYPSDIAVEWESNGQPENNYKTTPPVLDSDGSFFLYSKLTVDKSRWQEGNVFSCSVMHEALHNHYTQKSLSLSP chain 2: EPKSSDKTHTCPPCPAPELRRGPSVFLFPPKPKDTLMISRTPEVTCVVVDVSHEDPEVKFNWYVDGVEVHNAKTKPREEQYNSTYRVVSVLTVLHQDWLNGKEYKCKVSNKGLPSSIEKTISKAKGQPREPQVYTLPPSRCEMTKNQVSLSCAVKGFYPSDIAVEWESNGQPENNYKTTPPVLDSDGSFFLVSKLTVDKSRWQEGNVFSCSVMHEALHNRYTQKSLSLSP | – | – | – | – | – | – | – | – | – | – | – | – | cell migration-inducing activity (BaF3/mCXCR3 transwell) at 3 nM, relative to hCXCL10R75A Fc fusion = 100% [3]: 126%; cell migration-inducing activity (BaF3/mCXCR3 transwell) at 10 nM, relative to hCXCL10R75A Fc fusion = 100% [3]: 100%; cell migration-inducing activity (BaF3/mCXCR3 transwell) at 30 nM, relative to hCXCL10R75A Fc fusion = 100% [3]: 129%; cell migration-inducing activity (BaF3/mCXCR3 transwell) at 100 nM, relative to hCXCL10R75A Fc fusion = 100% [3]: 141%; cell migration-inducing activity (BaF3/mCXCR3 transwell) at 300 nM, relative to hCXCL10R75A Fc fusion = 100% [3]: 124%; cell migration-inducing activity (BaF3/mCXCR3 transwell) at 1000 nM, relative to hCXCL10R75A Fc fusion = 100% [3]: 26%
hCXCL10R75A.0644-G1T4k.one//VHn-G1T4h.one.H435R (Fc fusion) chain 1: VVLSRTVRCTCISISNQCVNPRSLEKLEIIPASQFCPRVEIIATMKKKGEKRCLNPESKCIKNLLKAVSKERSKASPEPKSSDKTHTCPPCPAPELRRGPSVFLFPPKPKDTLMISRTPEVTCVVVDVSHEDPEVKFNWYVDGVEVHNAKTKPREEQYNSTYRVVSVLTVLHQDWLNGKEYKCKVSNKGLPSSIEKTISKAKGQPREPQVCTLPPSREEMTKNQVSLWCLVKGFYPSDIAVEWESNGQPENNYKTTPPVLDSDGSFFLYSKLTVDKSRWQEGNVFSCSVMHEALHNHYTQKSLSLSP chain 2: EPKSSDKTHTCPPCPAPELRRGPSVFLFPPKPKDTLMISRTPEVTCVVVDVSHEDPEVKFNWYVDGVEVHNAKTKPREEQYNSTYRVVSVLTVLHQDWLNGKEYKCKVSNKGLPSSIEKTISKAKGQPREPQVYTLPPSRCEMTKNQVSLSCAVKGFYPSDIAVEWESNGQPENNYKTTPPVLDSDGSFFLVSKLTVDKSRWQEGNVFSCSVMHEALHNRYTQKSLSLSP | 174 | 144 | 109 | 107 | 153 | 163 | – | – | – | – | – | – | –
hCXCL10R75A.0670-G1T4k.one//VHn-G1T4h.one.H435R (Fc fusion) chain 1: YVLSRTVRCTCISISNQCVNPRSLEKLEIIPASQFCPRVEIIATMKKKGEKRCLNPESKCIKNLLKAVSKERSKASPEPKSSDKTHTCPPCPAPELRRGPSVFLFPPKPKDTLMISRTPEVTCVVVDVSHEDPEVKFNWYVDGVEVHNAKTKPREEQYNSTYRVVSVLTVLHQDWLNGKEYKCKVSNKGLPSSIEKTISKAKGQPREPQVCTLPPSREEMTKNQVSLWCLVKGFYPSDIAVEWESNGQPENNYKTTPPVLDSDGSFFLYSKLTVDKSRWQEGNVFSCSVMHEALHNHYTQKSLSLSP chain 2: EPKSSDKTHTCPPCPAPELRRGPSVFLFPPKPKDTLMISRTPEVTCVVVDVSHEDPEVKFNWYVDGVEVHNAKTKPREEQYNSTYRVVSVLTVLHQDWLNGKEYKCKVSNKGLPSSIEKTISKAKGQPREPQVYTLPPSRCEMTKNQVSLSCAVKGFYPSDIAVEWESNGQPENNYKTTPPVLDSDGSFFLVSKLTVDKSRWQEGNVFSCSVMHEALHNRYTQKSLSLSP | – | – | – | – | – | – | 100 | 100 | 100 | 100 | 100 | 100 | cell migration-inducing activity (BaF3/mCXCR3 transwell) at 3 nM, relative to hCXCL10R75A Fc fusion = 100% [4]: 195%; cell migration-inducing activity (BaF3/mCXCR3 transwell) at 10 nM, relative to hCXCL10R75A Fc fusion = 100% [4]: 146%; cell migration-inducing activity (BaF3/mCXCR3 transwell) at 30 nM, relative to hCXCL10R75A Fc fusion = 100% [4]: 132%; cell migration-inducing activity (BaF3/mCXCR3 transwell) at 100 nM, relative to hCXCL10R75A Fc fusion = 100% [4]: 132%; cell migration-inducing activity (BaF3/mCXCR3 transwell) at 300 nM, relative to hCXCL10R75A Fc fusion = 100% [4]: 127%; cell migration-inducing activity (BaF3/mCXCR3 transwell) at 1000 nM, relative to hCXCL10R75A Fc fusion = 100% [4]: 24%
hCXCL10R75A.0613-G1T4k.one//VHn-G1T4h.one.H435R (Fc fusion) chain 1: YVLSRTPRCTCISISNQCVNPRSLEKLEIIPASQFCPRVEIIATMKKKGEKRCLNPESKCIKNLLKAVSKERSKASPEPKSSDKTHTCPPCPAPELRRGPSVFLFPPKPKDTLMISRTPEVTCVVVDVSHEDPEVKFNWYVDGVEVHNAKTKPREEQYNSTYRVVSVLTVLHQDWLNGKEYKCKVSNKGLPSSIEKTISKAKGQPREPQVCTLPPSREEMTKNQVSLWCLVKGFYPSDIAVEWESNGQPENNYKTTPPVLDSDGSFFLYSKLTVDKSRWQEGNVFSCSVMHEALHNHYTQKSLSLSP chain 2: EPKSSDKTHTCPPCPAPELRRGPSVFLFPPKPKDTLMISRTPEVTCVVVDVSHEDPEVKFNWYVDGVEVHNAKTKPREEQYNSTYRVVSVLTVLHQDWLNGKEYKCKVSNKGLPSSIEKTISKAKGQPREPQVYTLPPSRCEMTKNQVSLSCAVKGFYPSDIAVEWESNGQPENNYKTTPPVLDSDGSFFLVSKLTVDKSRWQEGNVFSCSVMHEALHNRYTQKSLSLSP | – | – | – | – | – | – | 209 | 132 | 110 | 102 | 93 | 49 | –
